Experimental data reported in US20250090676A1 (SUTRO BIOPHARMA, published 2025).

Legend:
[1] = biological target: T1, human folate receptor alpha (hFOLR1) (human, UniProt P15328 25-234); experiment: cell-based or functional assay
[2] = biological target: T2, cynomolgus monkey folate receptor alpha (cynomolgus monkey, UniProt P15328 25-234 (human entry)); experiment: FACS, CHO-cFOLR1 cells
T2 construct: Expressed on the surface of stably transfected CHO cells; also called cyno FolR1; CHO-cyno FolR1

[3] = biological target: T3, murine folate receptor alpha (mouse, UniProt P35846 25-232); experiment: FACS, CHO-mFOLR1 cells;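 also: flow cytometry binding of serially diluted test antibodies to transfected CHO cells on ice, mean fluorescence intensity, parental CHO cells give background, Kd from one-site specific binding fit with Hill slope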
T3 construct: Expressed on the surface of stably transfected CHO cells; also called mouse FolR1; CHO-mouse FolR1

[4] = biological target: T1, human folate receptor alpha (hFOLR1); experiment: FACS, CHO-hFOLR1 cells;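 also: flow cytometry of serially diluted antibodies binding CHO cells stably expressing the receptor, 60 min on ice, mixed with dye-tagged parental CHO as background control, one-site specific fit with Hill slope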

T2 sequence (P15328 other isoform, or with tags, fused parts or gaps limits assumed): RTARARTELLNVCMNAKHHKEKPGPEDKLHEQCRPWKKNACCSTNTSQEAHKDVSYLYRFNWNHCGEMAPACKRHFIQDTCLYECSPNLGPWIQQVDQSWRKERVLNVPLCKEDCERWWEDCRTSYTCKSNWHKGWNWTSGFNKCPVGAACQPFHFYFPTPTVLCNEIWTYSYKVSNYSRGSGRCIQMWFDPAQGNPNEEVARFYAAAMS
T3 sequence (P35846 25-232 limits assumed): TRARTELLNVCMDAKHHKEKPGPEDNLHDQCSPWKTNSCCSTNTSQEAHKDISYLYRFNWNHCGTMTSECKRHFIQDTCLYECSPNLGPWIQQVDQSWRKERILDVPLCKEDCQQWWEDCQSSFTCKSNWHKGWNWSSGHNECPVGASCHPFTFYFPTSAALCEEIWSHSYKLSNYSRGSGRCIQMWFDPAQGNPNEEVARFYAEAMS
T1 sequence (P15328 25-234 limits assumed): as the sequence (P15328 other isoform, or with tags, fused parts or gaps limits assumed) above, with T2I, R4W, K37R, R117Q, P146A, Y171H counted along it

| Binder | Bmax (MFI) [2] [MFI] | Kd [2] [nM] | Bmax (MFI) [3] [MFI] | Kd [3] [nM] | Bmax (MFI) [4] [MFI] | Kd [4] [nM] | binding result [3] | Igrov, 2° Antibody Cell Killing, Nb-SC239: EC50 [1] [nM] | Igrov, 2° Antibody Cell Killing, Nb-SC239: Span [1] [%] | KB, 2° Antibody Cell Killing, Nb-239: EC50 [1] [nM] | KB, 2° Antibody Cell Killing, Nb-239: Span [1] [%] |
| --- | --- | --- | --- | --- | --- | --- | --- | --- | --- | --- | --- |
| SRP1848-C05 (antibody, V domains shown, HC variant paired with trastuzumab LC, cell-free expressed, HIS- and FLAG-tagged; also called Antibody 21) VH: EVQLVESGGGLVQPGGSLRLSCAASGFNIRKYSIHWVRQAPGKGLEWVGDIFPIDGINDYADSVKGRFTISADTSKNTAYLQMNSLRAEDTAVYYCARGSWSWKAGYGYYLDYWGQGTLVTVSS VL: not shown | 15200 | 0.35 | 4130 | 4.8 | 26800 | 0.52 |  | 0.021 | 62 | 0.073 | 92 |
| SRP1848-C10 (antibody, V domains shown, HC variant paired with trastuzumab LC, cell-free expressed, HIS- and FLAG-tagged; also called Antibody 23) VH: EVQLVESGGGLVQPGGSLRLSCAASGFNIRTYYIHWVRQAPGKGLEWVGGISPIDGYTDYADSVKGRFTISADTSKNTAYLQMNSLRAEDTAVYYCARGSWSWPAGYGYYLDYWGQGTLVTVSS VL: not shown | 16000 | 0.27 | 2330 | 5.6 | 27500 | 0.91 |  | 0.036 | 75 | 0.057 | 96 |
| SRP1848-C07 (antibody, V domains shown, HC variant paired with trastuzumab LC, cell-free expressed, HIS- and FLAG-tagged; also called Antibody 22) VH: EVQLVESGGGLVQPGGSLRLSCAASGFNIRKYSIHWVRQAPGKGLEWVGDIFPIDGITDYADSMKGRFTISADTSKNTAYLQMNSLRAEDTAVYYCARGSWSWPAGYGYYQDYWGQGTLVTVSS VL: not shown | 18100 | 0.23 | 3170 | 1.4 | 28800 | 0.62 |  | 0.013 | 67 | 0.065 | 93 |
| SRP1848-D05 (antibody, V domains shown, HC variant paired with trastuzumab LC, cell-free expressed, HIS- and FLAG-tagged; also called Antibody 27) VH: EVQLVESGGGLVQPGGSLRLSCAASGFNISISYIHWVRQAPGKGLEWVGGISPIDGYTDYADSVKGRFTISADTSKNTAYLQMNSLRAEDTAVYYCARGSWSWRAGYGYYLDYWGQGTLVTVSS VL: not shown | 22200 | 0.45 | 1360 | 14 | 26700 | 0.57 |  |  | 73 | 0.055 | 92 |
| SRP1848-D02 (antibody, V domains shown, HC variant paired with trastuzumab LC, cell-free expressed, HIS- and FLAG-tagged; also called Antibody 24) VH: EVQLVESGGGLVQPGGSLRLSCAASGFNISHNYIHWVRQAPGKGLEWVGGITPQDGYTDYADSVKGRFTISADTSKNTAYLQMNRLRAEDTAVYYCARGAWSWRAGYGYYLDYWGQGTLVTVSS VL: not shown | 28000 | 0.61 | 916 | 87 | 28800 | 0.6 |  | 0.027 | 71 | 0.034 | 93 |
| SRP1848-D04 (antibody, V domains shown, HC variant paired with trastuzumab LC, cell-free expressed, HIS- and FLAG-tagged; also called Antibody 26) VH: EVQLVESGGGLVQPGGSLRLSCAASGFNISHYSIHWVRQAPGKGLEWVGEIYPRDGITDYADSVKGRFTISADTSKNTAYLQMNSLSAEDTAVYYCARGYWFWRSGYGYYLDYWGQGTLVTVSS VL: not shown | 25700 | 2.84 |  |  | 29300 | 2.21 | no binding | 0.068 | 77 | 0.38 | 97 |
| SRP1848-D07 (antibody, V domains shown, HC variant paired with trastuzumab LC, cell-free expressed, HIS- and FLAG-tagged; also called Antibody 28) VH: EVQLVESGGGLVQPGGSLRLSCAASGFNISKYYIHWVRQAPGKGLEWVGGISPNDGYTDYADSVKGRFAISADTSKNTAYLQMNSLRAEDTAVYYCARGFWAWRSGYGYYLDYWGQGTLVTVSS VL: not shown | 24300 | 0.92 |  |  | 25700 | 0.77 | no binding | 0.032 | 71 | 0.075 | 94 |

Second part, led by results:

| Bmax (MFI) [2] [MFI] | Kd [2] [nM] | Bmax (MFI) [3] [MFI] | Kd [3] [nM] | Bmax (MFI) [4] [MFI] | Kd [4] [nM] | binding result [3] | Binder | Igrov, 2° Antibody Cell Killing, Nb-SC239: EC50 [1] [nM] | Igrov, 2° Antibody Cell Killing, Nb-SC239: Span [1] [%] | KB, 2° Antibody Cell Killing, Nb-239: EC50 [1] [nM] | KB, 2° Antibody Cell Killing, Nb-239: Span [1] [%] |
| --- | --- | --- | --- | --- | --- | --- | --- | --- | --- | --- | --- |
| 21300 | 0.65 |  |  | 25000 | 0.46 | no binding | SRP1848-D09 (antibody, V domains shown, HC variant paired with trastuzumab LC, cell-free expressed, HIS- and FLAG-tagged; also called Antibody 29) VH: EVQLVESGGGLVQPGGSLRLSCAASGFNISNYYIHWVRQAPGKGLEWVGGISPNDGYTDYADSVKGRFTISADTSKNTAYLQMNSLRAEDTAVYYCARGSWSWRHGYGYYLDYWGQGTLVTVSS VL: not shown | 0.023 | 70 | 0.042 | 91 |
| 22400 | 0.96 |  |  | 26400 | 1.01 | no binding | SRP1848-E01 (antibody, V domains shown, HC variant paired with trastuzumab LC, cell-free expressed, HIS- and FLAG-tagged; also called Antibody 31) VH: EVQLVESGGGLVQPGGSLRLSCAASGFNITNKYIHWVRQAPGKGLEWVGGITPFDGFTDYADSVKGRFTISADTSKNTAYLQMNSLRAEDTAVYYCARGSWSWPAGYGYYQDYWGQGTLVTVSS VL: not shown | 0.029 | 72 | 0.088 | 92 |
| 20400 | 0.23 | 11800 | 1.2 | 27300 | 0.54 |  | SRP1848-E07 (antibody, V domains shown, HC variant paired with trastuzumab LC, cell-free expressed, HIS- and FLAG-tagged; also called Antibody 36) VH: EVQLVESGGGLVQPGGSLRLSCAASGFNIRKSSIHWVRQAPGKGLEWVGEIFPYDGSTDYADNVKGRFTISADTSKNTAYLQMNSLRAEDTAVYYCARGAWSWRSGYGYYIDYWGQGTLVTVSS VL: not shown | 0.013 | 73 | 0.059 | 94 |
| 20600 | 0.52 | 1860 | 13 | 26500 | 0.48 |  | SRP1848-D10 (antibody, V domains shown, HC variant paired with trastuzumab LC, cell-free expressed, HIS- and FLAG-tagged; also called Antibody 30) VH: EVQLVESGGGLVQPGGSLRLSCAASGFNISRNSIHWVRQAPGKGLEWVGWISPNDGTTDYADSVKGRFTISADGSKNTAYLQMNSLRAEDTAVYYCARGAWSWRSGYGYYIDYWGQGTLVTVSS VL: not shown | 0.012 | 54 | 0.016 | 90 |
| 21500 | 0.43 | 3750 | 1.8 | 25200 | 0.56 |  | SRP1848-F01 (antibody, V domains shown, HC variant paired with trastuzumab LC, cell-free expressed, HIS- and FLAG-tagged; also called Antibody 37) VH: EVQLVESGGGLVQPGGSLRLSCAASGFNIRTYSIHWVRQAPGKGLEWVGSIFPNDGTTDYADSVKGRFTISADTSKNTAYLQMNSLRAEDTAVYYCARGSWAWRAGYSYYLDYWGQGTLVTVSS VL: not shown | 0.018 | 69 | 0.047 | 91 |
| 14900 | 0.19 | 2740 | 2.6 | 25700 | 0.62 |  | SRP1848-F02 (antibody, V domains shown, HC variant paired with trastuzumab LC, cell-free expressed, HIS- and FLAG-tagged; also called Antibody 38) VH: EVQLVESGGGLVQPGGSLRLSCAASGFNIRTYSIHWVRQAPGKGLEWVGSIFPNDGTTDYADSVKGRLTISADTSKNTAYLQMNSLRAEDTAVYYCARGSWSWQAGYGYYLDYWGQGTLVTVSS VL: not shown | 0.009 | 54 | 0.054 | 92 |
| 24700 | 0.61 | 5100 | 18 | 27200 | 0.72 |  | SRP1848-F05 (antibody, V domains shown, HC variant paired with trastuzumab LC, cell-free expressed, HIS- and FLAG-tagged; also called Antibody 40) VH: EVQLVESGGGLVQPGGSLRLSCAASGFNISKSSIHWVRQAPGKGLEWVGEIYPNDGSTDYADSVKGRFTISADTSKNTAYLQMNSLRAEDTAVYYCARGSWAWRSGYSYFLDYWGQGTLVTVSS VL: not shown | 0.015 | 74 | 0.061 | 94 |
| 18700 | 0.59 | 1470 | 21 | 23800 | 0.53 |  | SRP1848-E02 (antibody, V domains shown, HC variant paired with trastuzumab LC, cell-free expressed, HIS- and FLAG-tagged; also called SKP1848-E02; Antibody 32) VH: EVQLVESGGGLVQPGGSLRLSCAASGFNIGKYSIHWVRQAPGKGLEWVGEIYPNDGNTDYADSVKGRFTISADTSKNTAYLQMNSLRAEDTAVYYCARGSWSWRSGYGYYLDYWGQGTLVTVSS VL: not shown | 0.025 | 71 | 0.046 | 93 |
| 28200 | 0.55 |  |  | 27300 | 0.46 | no binding | SRP1848-E05 (antibody, V domains shown, HC variant paired with trastuzumab LC, cell-free expressed, HIS- and FLAG-tagged; also called Antibody 34) VH: EVQLVESGGGLVQPGGSLRVSCAASGFNIGVYYIHWVRQAPGKGLEWVGGITPNDGYTDYADSVKGRFTISADTSKNTAYLQMNSLRAEDTAVYYCARGFWAWRSGYGYYLDYWGQGTLVTVSS VL: not shown | 0.027 | 78 | 0.071 | 95 |
